Assay: soluble on expression in E. coli; label from the status in PepcDB or PDB records

Sequence | soluble on expression in E. coli
MSLHLYTKHIYFIGGKGGVGKSTSAASFAWRCAERGEKTLLISTDPAHNLGDLFHTEIGAKHKKITDNLFATEIDPEQETRRYIQSVKDNLRGMVKSTMLDEVNRQIDAAAATPGADEAAMFNAISSIVLDEQGTYDKLVFDTAPTGHTIRLLTLPEMMGVWIDGMVKKRKKINENYSNLLNDGEPVDDPIYDTLQQRKERFAAVRNVLLDPKKTGFMFVLIPERLPILETEKAVKLLAKHDLHVETLIINKILPDVADGQFLEKRRQIEQRYLQQIHNTFRKQTLLRVPLFPEDIGSIEALYHFARYLEPTAEGHHHHHH | soluble
MSLIDTMQYGKNDSLRDEIKAYWSGRAATFDLSPGHEIFSEDERAAWHALILKHLGRGEGRKALDLASGTGVISHLMDDLGFQVTGMDWSETMLGLAREKAKSRGRNIRFFVGDAENTMEPDESADVIITRHLVWTLVDPQASFAEWFRVLKPGGKLLIVDGDFVNTGWRERLVKKLAVSLESIGLVKADQPHKPADPENTFNSILSRVYFSKGARAGDVATMLGATGFEPVSVDQELRAIHRAQAKNFSLLKGILRGLQHRYAVCAVKPDTSVKGEGHHHHHH | not soluble
MSLIEKLEEIFKKGSVTYYNSSYFFPKKIREDVTKLYAFVRVFDDLVDSVPQKIEEYYNLRKLYQLEKSGYNTGNIVLQNFVELARRKGFEDSWIDAFLDAMESDIYKKVYYSIEELLKYMYGSAEVVGLFMMKILDLHNDSMYYARMLGRAMQFLNFIRDVQEDLYLGRQYLPVEDMEKFGIDKMECNEGFIEFIRYEISRYFEFEREAEKGFKFIPARYLVPIKTASEMYKWSALRIKKSPCIVLSKKVKPRRTKIVITVIKNFAGVYLWRSLNPIEGHHHHHH | soluble
MSLIESVMTVLVTRPDEQGAELCQLLHQQGIPALHHPLLAISASPQLAALAEDLSSFDIIIAVSQHAVIFSDQFLQHRRICWPNNAIYLAVGQKTAHVFSKACQQSVDYPEISDSEHLLALSMLRDVAGKKVLILRGNGGRELIYSTLVERGATVRYQEAYCRHERPFAAAECVQKWQLAKVDSLVITSSEQLAFFIRQFETSHLPWVQQLTLLVPSQRIATLAHQLGFHRIVVTLSAANRDLVAALMPEKPTGTLSNDQQQEGHHHHHH | soluble
MSLIIDCHGHVSAPVELWAYKASLLAHRGSHGRGGVKVTDEQIIAAAHHKETWPDGHIELLHNHGTDMQLISPRTFQMMNSAKPARVVHWFCEEVNTLIHRQCTLIPEMFIPVAGLPQVAGEPIENVFAEMDRCVSMGFKGFLLNPDPYENGAEEAPPLGDRYWYPLYEKLCELDLPAHIHATGSQSERSPYSLHFINEETIATYNLCTSSVFDDFPQLKVVVSHGGGAIPYQLGRFESQSRRSKHLFSERMAKLYFDTVLYTEGALRLLIETVGPERCLFGSECPGVGSTIDPATGKQMDHIAPFIQKFDFLSDADKKLIFEDNARKVFNLEVEGHHHHHH | soluble
MSLIKCVCLVIEEQEKLLLVQSRNREKYYFPGGKIDIGETYKQALQRELNEELQLDIPESSLIYMHTVVGEAYPQKNMKTELNCFYTTADIDWSTLVPSQEITDLQWIDKKDEHKIAPAVITWIEEQQHFKNIEREGHHHHHH | soluble
MSLIKTEFKGNNIPYEYAAGADVSDSINGNPIKSFPFEVIELPEGTKYLAWSLIDYDAIPVCGFAWIHWSVANVSVSGNSISIKADLSRTKGDYVQGKNSFTSGLLAEDFSEIENHYVGPTPPDQDHQYELTVYALDHSLNLKNGFYLNEFLKEVNQHKIDQTSINLIGRKEGGSHHHHHH | soluble
MSLINLKHSFGISRSSHDFYDIVYFYIVDGEIIGRGEAAPSKRYNETTEKIISVLNKGILVPENFEDADQLWEYIKPQLEGISALEAAANMAIWDWRGQKENKAVHDILGFNVSKLPATSYTISIGDMSELDEKIELSNPYSIIKVKLGTPNDDKEIISQIRQRTDKLIRVDANEGWSLDNAKEMSYWLADRNVEFIEQPFKAKMLNETRSLREFSPLPLFADENSLVSSDIPNIVDCFDGINIKLMKCGGLDEALKMIEIAKHFDMQIMLEGHHHHHH | not soluble
MSLIPDVSQALAWLEKHPQALKGIQRGLERETLRVNADGTLATTGHPEALGSALTHKWITTDFAEALLEFITPVDGDIQHMLTFMRDLHRYTARKLGDERMWPLSMPCYIAEGQDIELAQYGTSNTGRFKTLYREGLKNRYGALMQTISGVHYNFSLPMAFWQAKCGVTEGGSGKRKISAGYFRLIRNYYRFGWVIPYLFGASPAICSSFLQGKPTTLPFEKTDCGMYYLPYATSLRLSDLGYTNKSQSNLGITFNDLHEYVAGLKRAIKTPSEEYARIGVEKDGKRLQINSNVLQIENELYAPIRPKRVTRSGESPSDALLRGGIEYIEVRSLDINPFSPIGVDEQQVRFLDLFMVWCVLADAPEMSSDELLCTRTNWNRVILERRKPGLTLGIGCETAQFPLPKVGKDLFRDLKRVAQTLDSIHGGEEYQKVCDELVACFDNPELTFSARILRSMIDEGIGGTGKAFGEAYRNLLREEPLEILQEEEFIAERDASVRRQQEIEAADTEPFAAWLAKHAEGGSHHHHHH | soluble
MSLIQDNEISSSTKTRIKALKFFSRKMLSELNFGGYRSIFKGLGLEFHEFRPYEDSDDARFIDWNVSSKADSIFSKVFKEDRGMNLHLLVDNSLSMSLGDKVNKKDVQDLLVSIFAHMAFFNNDKIGVTFFSSGTDKFIPSSKGHSHLGLILSETINRNLKPGSSLAYIFKNTAEYYKKRSLVIIISDFKANAYFKSLNVLSKRHNVIAIRISDFFDENFPKIGTLICEDIETGENFLVSGFSKSTLSGYKNYWTLDKIKWKKECIKKNISFIEIDTKEDVFKKLKILLKKGQEGHHHHHH | not soluble
MSLIRDRTEPVMSAKLPPVEPVSPTNPRSSASPGSPDRSGLPVVVSVVGLVHTPGLVTLAPGARIADALQAAGGAVDGADTVGLNMARQLGDGEQIVVGLAPPSGQPRVLGSSVGAGTPGPAGTSGTATTGPKTAPKTAEVLDLNTATVEQLDALPGIGPVTAAAIVAWRQRNGRFTSVDQLADVDGIGPARLDKRRNLVRVEGHHHHHH | soluble
MSLISIVVLYYSRHGSTQALARQIARGVESVEGCQALLRTVAELDGTASNSDPYLSLDELKQCDGLALGSPVWFGNMAAPLKHFWDQTTPLWLSGALIDKPACVFTSSSTLHGGQETTQQSMMLPLLHHGMLILGIPYSEPALHTTQSGGTPYEGHHHHHH | not soluble
MSLISIVVLYYSRHGSTQALARQIARGVESVEGCQALLRTVAELDGTASNSDPYLSLDELKQCDGLALGSPVWFGNMAAPLKHFWDQTTPLWLSGALIDKPACVFTSSSTLHGGQETTQQSMMLPLLHHGMLILGIPYSEPALHTTQSGGTPYGASHVHQQKTLSSEEAELARQLGKRLAHVAKQLKGEGGSHHHHHH | soluble
MSLITACPRPCAWRSYALGLGLLPLAAQAEFLADSSAHLDLRNFYQLRDYRQHDAPQSQAGNWSQGFVLRLQSGFTGGPLGFGLDATGLLGVKLDSGRGRSNDGTLPFGANSKEPVDDYSHLGLTAKLRYSQTQLQVGILMPQLPVAFRDDVRLLPQTFDGALLTSSEIEGLTLTAGQLWKSRTRESAGSDDMYIMGRDKAHASDEFNLAGATYAFTPRLSASYYYGQLKDIYRQHYLGLLHTLPLGEGLSLRSDLRYFDSGEDGAAISGPVDNRNLNAMLTLRAGAHAFGIGVQKMIGNDAFPVLNGYTTPYVANLMAYQTFTRPQEKSWQLRYDYDFAGLGLPGLNLMTRYVQGRDIDRGAGRADDSEWERNTDLSYVIQSGPLKSVALKWRNITYRSRYGADLDENRFIVNYTLKLWEGHHHHHH | soluble
MSLIVTLPEPTGPYEIGVTNFHWVDPDREEVEGVNGNRELMVRIWYPAELTEGGLKAPYAFDPSYTELVSKELPYYYKALLYSVIQTETHSFANVPVADHGAPYPVLILSPGYGNSNFMYTSQAETLASHGYIVCSIEHTYYTGLPTLFPDGRIVYEQIDLEDGRDLDEEITVWVDDVQFVLDQLQKWNESDPQNLLNGRLDMDRVGMLGHSFGGATTAQVMHQDPRIRAGVNMDGFLFGSLIEEGLDYPFMYMSGVEEVSMEGPDGKKVEEAELPEEFREFIADDKRRKEGALKNNGLYVVIENAEHESFSDWMLYSPLLLDRDLPMLDQINKTLLDFFDEHLKEGHHHHHH | soluble
MSLIYPEKNREVLVQLMNQSKNASLIQAWIDDGNTTIAPEKIQVTFILTPPVSRVAGGSGQQLKIRKMPNNLPHNKESLFYLNVLDIPPNNPQNAGKNKIKLALQNRIKLLWRPSGIAPVDKKSLSQLNIKKKNNAISINNETANWITVTTIKAQNVKVNNESILLPPFSHNDITLKNNHASEYELTVVDDYGNNIHSKIAAREGHHHHHH | not soluble
MSLKAIKNGTILTGTGETIKQGTLLIQDGKVLEVGQRVDTPANAKLIDATGKYVTPGLIDVHTHIGVFSEGLGRTGHDFNETTAAATPYIRAIDGIYPFDQGFEDARQSGVTTVQIMPGSANVIGGEMVTVKTAGTVVDEMIVRAPSGMKAAFGENPKNVHGGKGKLPATRMGVAALFRQQLYQAQDYLKRFEKGELEKRDLGMEQLAKVLRKEIPLRVHAHRADDIATVLRMVDEFDLEATIEHCTEGHLIADHIAKYNVKVSVGPTMTSRTKQELVNKGWHTLIELEKHGIPFSITTDHPVVTINHLVTSAIQAVKAGLSEQSAFQAITLRAAEHIGVEQQVGSLEKGKDGDFVIWSDHPFTATAQVEATYINGKCVTGSHCEGHHHHHH | soluble
MSLKAIWHGGFIYTMLEEGDRTEAVYVEDGVIKGTGSYERLKEKYGSPETEEISLNGAVMFPGFVDSHLHLIGHGEKQLQLDLSALTSKDSILQAAKERERQLPKNDWLIGEGWNENQFETPDYLTKHDLDRLFPDRPVLLKRICRHAIAVNSAALQAAGISRNTPDPDGGVIVKDANGEPTGLLFDKAQDLILKAVPPVSQHYVDEALTAAIKDCWTKGLTGGHSEDLSYYGDVSVPMKAYEKAAAGGKYPFRCHLLVHHEAVDRWEQLEKLSGPYVEFGAMKIFADGALGGRTALLKEPYQDDPSTNGVQVHDDETLGRLIRKAREKGMEVAVHAIGDLAFEKVLNAIEKHPPKNGRHDRLIHAQVLDNELIERAARMPIALDLQPHFVASDFPWVIDRLGKDRMKTAFAWKTLISKGILCAGGSDAPIEPVDPLLGIQSAVLRKSSHEQNGPSYNESECLPVYEAIKLYTEGSAGIIYKEKSRGKIAEGYDADFTVLSGDPFAIDPAQLHLLEIKKTVINGQIVYEKSEGHHHHHH | soluble
MSLKAVIGISASEVTIQSGPFMGEPRTYVNAAYVDSVLKNGGIPLVIPFTAGGEEMAFKQLDLVDGLILSGGHDLNPHLYGEEIDQKSGETWPDRDAFDMALLKRAEETGKPVLGICRGAQIINVAHGGSMWQDLSLRPGNTLKHMQAIRPDVGTHVVKIKSGTTLKKIMGKSSLMTNSFHHQLIKEVAPDLTESASASDGVTEALESTDGKVIAVQWHPEEMHANPAPEAAIMNRLFKYLIDKAEEEKEGHHHHHH | soluble
MSLKAYKTDGTHFRAITRQTLLGADEDERALGHQTRYFEIAPGGYSSLERHQHTHTVMILRGQGELILGDALHRIGRHDCIYIAPQTFHQFHASGDEPLGFLCIVDRERDRPREGHHHHHH | not soluble
MSLKEAIVERIVNKLNENQKEKIGVELPSGKRIPEFPVSHLIRFKTWKSLDYVLKDPEMGFGEGYMNGDIEVEGDLEEVIKRGMTLFKDTRKFEKLFGILRHVPLFRTIRDERNVKHHYDLGNDFYRLWLDKSMTYSCAFFEDPSMSIDEAQSLKRRIIYEKLQLKEGDTLLDIGCGWGSIILESAELYNVKSVGITLSDNQYEYVKEEIKKRGLQDKVEVYKLHYVDLPKLGRKFNKVVSVGMFEHVGKENYETFFNTVYKVMEEGGLFLLHTIGKLHPDTQSRWIRKYIFPGGYLPSISEIVESFRDMDFTLIDFDNWRMHYYWTLKKWKERFYENLDKIRNMFDDRFIRMWELYLTASAVSFLIGSNYVFQILLSKGVKDDYPVIKREFSGVLFKEGHHHHHH | not soluble

Reference: the DeepSol protein solubility set
